test: soluble on expression in E. coli; label from the status in PepcDB or PDB records

Row | Sequence | soluble on expression in E. coli
1 | MTDFFRFPNTPHLLWLGQGQPRDDKILSDAEIAALLQDEVLIEEKLDGANLGISLDEHGELRAQNRGQYLPQPFSGQFSRLNSWLGQHGEILKHTLTPEMILFGEWCAARHSLDYNKLPDWFLLFDVYDREAGKFWSVERRNQLAQKLNITTVPLLKRTKITCNQLVQLLDDAQSRYRSGKVEGIVIRCDSPLWCESRAKLVNREFVQAIEDHWRSRSIEWNLVHAGSVKRS | not soluble
2 | MNFGAYGKITDVEFVSDSEGPLHFCIITFADSRSVDVLLTKSIYIRDVLMFTRRAVLKESVKIAEHKIKEQEQQNLVQLPPNHTAYLTPSRPVTSVHASSSASSNHYDPSAAAGYAPLYHQPPESDPLSQCGYGPRKW | not soluble
3 | MDMSLAEDAQETMATLAPDRFFFMSPYRSFTTSGCFARYTEPAVAGDSPDSPFQQKLRQQFAEAKSQGIANPILVGAIPFDTRQPSSLFIPMAWQSFSRQQKQRTARYFTDHQSLTVTARKAIPEQDAFEAMVARAAMLTATPDVDKVVLSRLIDITTDVAVDSGALLERLVAQNPVSYNFHVPLADGGVLLGASPELLLRKEGERFSSLPLAGSARRQPDDVLDREAGNRLLASQKDRHEHELVTQAMKQILRDRSTELQLPSSPQLITTPTLWHLGTPFEGKANAGENALTLACLLHPTPALSGFPHQVAKKLIAELEPFDRELFGGIVGWCDAEGNGEWVVTIRCAKLHGNQVRLFAGAGIVPASSPVGEWRETGVKLSTMLNVFGLH | soluble
4 | MYNNSAPYLNHSSLNTVRKKVVTVRRVLPSLPPPPPPPPSLYPPCSVFKVPYIPQRVYRSINSTLYNNQSFASSSRGFYRKQKPIPKSHPKHQEHHHHAKASVSTPVHSSSTSRNSSVAPTPQRTVSTSSSSSSAATSARVSEDESDSDSTPGEVQRRKTSVLSNDKRRRRASFSSTSIQSSPERQRDVSSSSRTSSSSSTSSMKQEETADEKSRKRKLIMSSDESSTTGSTATSVVSSRQSSLEPQQEKTDGEPPKKKSQTDFISERVSKIEGEERPLPEPVETSGPIIGDSSYLPYKIVHWEKAGIIEMNLPANSIRAHEYHPFTTEHCYFGIDDPRQPKIQIFDHSPCKSEPGSEPLKITPAPWGPIDNVAETGPLIYMDVVTAPKTVQKKQKPRKQVFEKDPYEYYEPPPTKRPAPPPRFKKTFKPRSEEEKKKIIGDCEDLPDLEDQWYLRAALNEMQSEVKSADELPWKKMLTFKEMLRSEDPLLRLNPIRSKKGLPDAFYEDEELDGVIPVAAGCSRARPYEKMTMKQKRSLVRRPDNESHPTAIFSERDETAIRHQHLASKDMRLLQRRLLTSLGDANNDFFKINQLKFRKKMIKFARSRIHGWGLYAMESIAPDEMIVEYIGQTIRSLVAEEREKAYERRGIGSSYLFRIDLHHVIDATKRGNFARFINHSCQPNCYAKVLTIEGEKRIVIYSRTIIKKGEEITYDYKFPIEDDKIDCLCGAKTCRGYLN | soluble
5 | MGSDKIHHHHHHMNICDLAPAYIRAISPYQPGKPISELAREMGMDEQSIIKLASNENPLGTSPMALNAMSKALDEVSLYPDGSGFELKAALSERYGVTSDQIVLGNGSNDVLELAARVFLKPGASTVYSQHAFAVYPLVTKAVGGIGISVPARNYGHDLDAMLDAVAPETRVVFIANPNNPTGTLLPADDVLRFLERVSPDVLVVLDEAYNEYLPPALKGDSIAWLKQFPNLLITRTFSKAYGMAGVRVGFGLGHPDVAGLMNRVRQPFNVNNIGLAGAVAALQDEEFVKRSYALNQAGMLQIVTGLRQMGIEYIPSYGNFLSFRVPGNVKAINESLLKQGVIVRPISIYEMPEHLRVTVGLESENEKFLKSLAIALETTEGAAADTIPEMAVSFPKVASGGTA | not soluble
6 | SLREMKHLRSIEQEIKMSIPSQEVPTIEDVVEKQKESWKKQIAHRIEKGSNQKHLFEQMTEELMAEYDSKEVISALLQLNYAMDTAPEDAGYSFGETGGAKGMVRFFINVGRNVNMSPKILVEEIAELVGIPGKAIGRIDIFEKFTFVEVPEEVAPFVYEALRYSRINGARVNLEPAKPRPKRESQRRTFQK | soluble
7 | MPLCTLRQMLGEARKHKYGVGAFNVNNMEQIQGIMKAVVQLKSPVILQCSRGALKYSDMIYLKKLCEAALEKHPDIPICIHLDHGDTLESVKMAIDLGFSSVMIDASHHPFDENVRITKEVVAYAHARSVSVEAELGTLGGIEEDVQNTVQLTEPQDAKKFVELTGVDALAVAIGTSHGAYKFKSESDIRLAIDRVKTISDLTGIPLVMHGSSSVPKDVKDMINKYGGKMPDAVGVPIESIVHAIGEGVCKINVDSDSRMAMTGAIRKVFVEHPEKFDPRDYLGPGRDAITEMLIPKIKAFGSAGHAGDYKVVSLEEAKAWYK | soluble
8 | MAGNFWQSSHYLQWILDKQDLLKERQKDLKFLSEEEYWKLQIFFTNVIQALGEHLKLRQQVIATATVYFKRFYARYSLKSIDPVLMAPTCVFLASKVEEFGVVSNTRLIAAATSVLKTRFSYAFPKEFPYRMNHILECEFYLLELMDCCLIVYHPYRPLLQYVQDMGQEDMLLPLAWRIVNDTYRTDLCLLYPPFMIALACLHVACVVQQKDARQWFAELSVDMEKILEIIRVILKLYEQWKNFDERKEMATILSKMPKPKPPPNSEGEQGPNGSQNSSYSQS | soluble
9 | MDIWVNLLSDRLESPNFEFITDFIGGKCVVQKDYLEDEKSQSSSGWLLHVYFRPEEFLDRPFVADIIFRCGTRRREVFSVLLKNDCFFAHMRVKEKTGRLIIAARIRKMLCELDLSKPSGSRQFVVQNFENQLKDGRIFYVNLAKLGQIGGDLFKKWQTVENVQQLSLANETMENRMIEVLMEATAKYDDIVVIRHSFHRLIQLAQTYRMHKLMRVIEENLSETKLMNWDEKILLALQYRMSQLYVQVQRKYLLTPWNILCRIQRLYLSNYAAKSGNASNPYDMIHKNLMQMVMMSDENICIG | not soluble
10 | MGSDKIHHHHHHMTQFWRDPTLPFVESRRATDSRACYRPHSHPTLSIGVVDRGQSQFQCQRRREWLTPGCLVSVPAGVVHDCNPLPDQPWSYQMLYLEPAWVSEVLDEASAETDAAPTLPSTVFIARDVAPYQAFCRLNALLFSSAPRADKEAGLIEFLGSRLWCHGDAMAVHWPNSSDLDDLQRHLLECLERPPSLEVLARDHGLSRYQVIRLFRRETGLTPHAWLLDRRIQQARRRLCQGVELAELAQELGFADQGHFQRAFKARVAATPGRYRST | not soluble
11 | AHHHHHHGSRIVVIGSGTAGSNFALFMRKLDRKAEITVIGKEETMQYSPCALPHVISGVIEKPEDVIVFPNEFYEKQRIKLLLNTEAKKIDRERKVVVTDKGEIPYDKLVIATGSKAFVPPIKGVENEGVFTLKSLEDVRKIKEFIKKRNPKNAVVIGAGLIGLEGAEAFAKLGMKVTVVELLEHLLPTMLDKDIAKIVEENMRKYGVDFKFGVGVDEIIGDPVEKVKVGEEEIDADIVLVATGVRANVELAKEAGLEVNRGIVVNEYLQTSDPDIYAIGDCAEVIDAVTGKRTLSQLGTSAVRMAKVAAENIAGRNVKFRPVFNTAITEIFDLEIGAFGITEERAKKEEIEVVVGKFRGSTKPEYYPGGKPIVVKLIFRKEDRRLIGAQIVGGERVWGRIMTLSALAQKGATVEDVVYLETAYAPPISPTIDPITIAAEMAMRKL | soluble
12 | MYSDDLLLEEDSADESSLANAFSRGMQLGSTDASSYSRRFNSNASTSSSNPTTQRRYAPNQAFSQVETGSPPSNDPHARFGQHIPGSQYIPHVSQNSPSRLGQQPPQRYNHGRPNAGRTMDRNHMNAQLPPSNTNSGGQQRSPRSSSYTNGVPWGRRTNNHVPNVPSTSHGRVDYGSIA | soluble
13 | MSLAVTLADVARRAGVSLATASRVLNGSARAVSDEMRARVTAAARELHYVPNAHAQALARAATQTVGVIVHDVSDPYFAEILRGIQRSAADAGRLMIVCNTFRDPQRELEYVHLLQKQRVEAIILAGSGLDDRAYCRSMTERLDSFASMGGRVAVIGRHNIAADAVVPDNVGGARALAHYLLDLGHRSFGIIDGPALLTTSRDRRSGFVQALQAGGITLPPDAIIPGDFTRDGGAQAAIRLLERFPSITAIFALNDVMAIGALAALRERGITVPDQMSIVGFDDIPIAADVTPALTTMRVPMSQLGSEALALALSAEDTLRTIHLPTEMIVRQSTAEGHHHHHH | soluble
14 | KVKWTHEEDEQLRALVRQFGQQDWKFLASHFPNRTDQQCQYRWLRVL | soluble
15 | MRVQILKDFVKQHFPATPLLDYALEVEKITTSKKPNLILNVDGFIGVAFVDMLRNCGSFTREEADEYVDIGALNGIFVLGRSMGFIGHYLDQKRLKQGLYRHPWDDISYVLPEHMSM | not soluble
16 | MGSDKIHHHHHHMQQAHNDGVVSAMSQATDARLAAQDLARQLLHPHLGFVLFFCSAEYDLQALGEALEQDFGGIRLVGCTSAGEITPLGYGRNCVTAVGFDHRHFSIATALIDEMERFSLIDAQQMVERLVGTCRSNTLAPIKGHSFALTLLDGLSSREEMVLAALSAALGDIPHFGGSAGDDNYLNRTHVYYGGAFHNGAAVVVLVNTWLDFEVFTTHHILPRQEKLVVTGADSAQRRVFELNAEPAAEEYARHIGVPVAALDHRVFAAHPLAVRIHDQYYVRAIQQMHPDLSLSFYCAVENGIVLTAMTPGPLLPNLHQLFDGLHQRLGPLLLTIGCDCFLRRLELEAHRGLEPVGAFLREQRVIGFNTYGEQFNGMHINQTFTGVAIARNRPPVGR | not soluble
17 | MGSDKIHHHHHHMDLNALTLLVDILDAGNLSKAAQRLKMSRANVSYRLNQLEKSIGLQLVRRTTRRIEPTEIGLRLYEHGRRIQSELFAAREAVTTLGQDLQGRVRLSVPSGYGQLVMSNWLIAFKRLYPGIVLDVVFENRIEDLMRDEVDIAVRVMSEPPQNLVARDMGAVRYVACASPGFAATHGMPTELGQLFDAPVITSTVVGRQLRVAAYLGDERHEVLLEPTLISENFLFLRQAILAGLGVGIVPDYVVHDDVRRGAVVTTLDAYRLSIFGTHMYMLYMPNRHHTRATSTFIDFMLEEARNAGRGG | not soluble
18 | GPGSMSESCSGDYYHFVTQRSQAAEITLPIPSFCKPLAASVQPFGEGKAGLLASFFDPEQHAWVVRQLPVQESWSHQPPPSLTVRVATLVDPANLYELRVSLSSVLDGVDNDDLCALQRRSQIYGLVVEEHLADKSGAALRSAGAEGRLPQLREAVTLAAPVDVMNGFVLTGGGFLSDFPVLRDGPALPRSMNTVYDDILAGEDFCGPPMPAGGARFAGTDSAAHTSGGRGSDSPVNSNEPREYTAWSVTAAANAGLACISMGLRRRSPIEWPQLQSESQHTHSASPRERTGPGTSLAISPGPLRAKPPPSVVSDTGALAVYQCTGVPVSGLRPNEHGDGGNGAHGVVSAYSSAAVSTMAARPLLETLTLRGEVDVKLSRRDGEEWGISLPPPHGSLKFSMGPNRELVAAARRYFYCE | not soluble
19 | MGSDKIHHHHHHMGVFLDKSIKEVVDELNGRYFLPDIQREYVWLQNADGKKIEQLFDSILRGYPIGFFLFWKLPKEDIAKSDEQDSDKLNFQLYQFITNYDERKPHNEKIRIEQIKRDDLYIVLDGQQRLTSLYIGLKGTRTLKKKNARYDNPNAYEEKRLYLNLKHQPNMDNPEDNYEFEFHAQKPENDKKHWWFKVGDILESESHVWNYADEHGLKGNELKLLGDLHRAFHTKQLVSFFEETEKNLNKVLNIFIRVNSGGVKLSYSDLLMSILTASFSSDIREKMNELVDALKDKGFSNMG | not soluble
20 | GSAAEVMKKYCSTCDISFNYVKTYLAHKQFYCKNKP | soluble
21 | MSSGSTSTTPRAWLSGSVVTGKCCLLVIRKGQRPGVPFPAPCASGVAVTGRPPCATGGRGRTRPPTGVGEDTKDSCGKGIADETPRRHHGGPATRKAGRATGRSERGHSRGTRPAELMPIPRSPVVVALGAFEISNES | not soluble
